Test: soluble fraction after stress (log2 fold change); higher = more stays soluble; pooled small domains, quantitative proteomics
Conditions: stress: 75 degC
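Note: 20 min heating vs room temperature control held 20 min.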

Row | Sequence | soluble fraction (log2)
1 | HMEESTYQWNNFVRDFYASRVSAQYTNKLKVAAILWHHVKNTPQSKIYHDNLVSKYAEEINYFK | -2.8
2 | HMEETEVPPVTGYEQSKASEVLTGKGLIPDIITVADEETAAGYVIRTDPASGEKVPSGTTVKVYVSSGP | 0.248
3 | HMEETGFYIKLQDQEVVIFHNDQVTPYEYTGIREEVLPESELEKLREGFFVEDEKELYSVLENLS | 0.0782
4 | HMEETLEELGKEYESAFTMYEKLWSYYKKQNYHQVNHKRSERYEILLGFVREYHPEKVEYYRELL | 0.378
5 | HMEETLRALAKKISEKVLKSGRSTTLEPMNPYERRIIHSAVSEIEGVSSKSVGEEPYRKVVISSDNP | 0.0756
6 | HMEETLRELAVKISKQVIKTGRNSVLEPMNPYERRIIHAVISEIEGVSSKSVGEDPNRKVVIMSTNP | -0.217
7 | HMEEYTVEFVKHKVKRKQTLYTISKLYNVSIDDIIKYNSQIEGFNLSRRMELNIPVKKTLIVKNE | -2.55
8 | HMEFDTEFVLRQAMHAFMQYGYAKTSMQKLKEATHLHPGSIYAAYGNKKGLFLAATEQYQKDR | 0.288
9 | HMEFEYFQLRDHLYNLIMHPDKEKLKKDPDYLKLMSMAFSLLEDQNVGKDILEIAIKSIENFK | -0.847
10 | HMEFLDLEIDVDATDGRLLAFLAAKGEVVSQTFNDTIITVRVRMPTGAMGQVHRSALAIRPA | -2.24
11 | HMEFLDQAFLHETMRKVNQDATINLLKKVYEVPQKFIGRKVTVQYDPEDLSRVYVKDLSFPEPVTVYPV | -0.18
12 | HMEFNDLNDDEKAILHIMYNTGEKMTTALAARITNRGRNFASKLLKSLVKKEILEWHGTSKQDRNQYYTLA | -0.0971
13 | HMEFQVKVIVSSLNIRSGPGTSYDTLGTVTKGDIFTIVETNSDSTWGKMQSGGWISIKDAYVKK | -3.92
14 | HMEFTFTLPRGYIDDTGMIHREGTMRLANAADEILPLKDPRVQQNPGYLTIILLARVITKLGSL | 0.33
15 | HMEFTKSPLDEIAGVGPARKRALLAAFGTAKAVSQAALADLEKTPGVNAATARLVYAHFHEK | -0.227
16 | HMEFTVFMNSAGGSKLQVVKTVKELTGLGLKEAKAIVDGSPGPVKEGLSKADAEAMLAKLQEAGADVEL | 0.013
17 | HMEFYYSDLVGMIVYDTGGNELGKVQAVLNHGAGDLLEIHGVNLKTSILIPFTKEAVPTVDIAARRIVTDP | 0.246
18 | HMEGAEDMNRALALAFLRDNSRSTVAQLAEHLGSSKRSAERLVAQLKDEGVLERQGSPRAGLWIVHI | -0.169
19 | HMEGEVVESPLVGVAYLASGPDKPAFVQVGDSVSKGQTLLIIEAMKVMNEVPAPRDGIVTEILV | 0.1
20 | HMEGFSAGQFVRASVDNTAFYLKRPKGDAVADKLLRRGASMKVISASGDYLKVELDSGEVGFVPPVMVE | 0.0267
21 | HMEGIWAVFYDGKPINLKSSSLVANYPGPKYKKVSFSNPGHAENLAKKLNAQHNTDKFGVYLLKSGDKFS | -0.113
22 | HMEGMSIYVTVNGDMVHLTGKMSYVFVDVFEHIDFDLSKPQGSGIVTKLNGRDAQYMEEIRSGDMIEIYWR | -0.956
23 | HMEGNLVEIFEDAFGRTMSTMDIEYINQFKRTGYDDEMIVSALREAVKSNALSFRYIERVLENWAHS | -0.881
24 | HMEGTEVTTEPPGAQIEFDGKQFGPTPTRVPGLAAGKQFRITLAGYQEAKPKLKNNPKEGEPLSFTLTAI | 0.338
25 | HMEGTVQQDKFDAYKAKFEDAISNDLNTSMAITIIYDLLKDDMNDKTKLALINDFDKVLSLNLTTA | -0.219
26 | HMEGVTVPDVTRISLDEAEELLTSYGLRFEVADRRANSAFPGNYVIDQAPSAEVIVKPNRKIYLTVNAA | -0.238

Row | Sequence | soluble fraction (log2)
27 | HMEHDTVLSKVFRRLREAHVPLSLDDIYQGLRKTVNNNSEIREKIVTLQERGLVAEILGPKGGKKYVAKPT | -0.693
28 | HMEHIEVDTSHIAVGSKVKHKAFGLGEITDKGNTYVFVKFDGQAIPKKFQFPGAFTQGFLTK | 0.236
29 | HMEHPNNTELTQKLELGTELMQYGDYNYALKVFNNVIDSDPEWSEAWNKRATVYFLMSQFTDSLSDIDRV | 0.331
30 | HMEIDMQEGIKTIILMMKEHNITPSEAMKIYKSANGDIHYISKIYNHFKNKGADNFVALMIKMVKPGEFIE | -2
31 | HMEIEETKKNSRTKIPENFDYKLINGLSNEIRAKLELIRPIDLLQASRIDGMTPAALTLVHLWIKKYSG | -1.52
32 | HMEIEIPEELQNKFAEIPELKTAFESLTPGRQRAYVLYFSQPKQSKTREARIEKYIPHILDGKGMN | 0.461
33 | HMEIESAHAQVLGVREIAASGATQHWIAFRFSDGHQRELLATPSQADVIFRGQQGVVHFAGDRLTGWIPE | 0.104
34 | HMEIEYFDDEELDAYKGRKSDSYTDEEAAQFAEVLYTMRPSEVKDWTASLTLRGISMPDQIKDEAIMLME | -0.148
35 | HMEIGELITLYRKQAGLTIDELSEKANVPKGTLNKIIGGITKAPTLETMRSIAYALGKKLADFDN | -0.503
36 | HMEIHQVEFGGKVISFVLERKPVKNVNLHIKPDMTVMVSANEKVPLDFILGFVKQKAAWILKNIQFFEDV | -3.57
37 | HMEIKDQADAYGKMEPASAAAILSEMTNDLTLVAKILDSMQTSKSALILQNMKPTTAAQVTTKMTAMK | 0.0474
38 | HMEILTRQLTHYLHLLPPAQQEVVRGVYLQDQTLQEIADRVQIPLGTVKSRLRLGLSKLREQIEQEHE | -1.36
39 | HMEIMELPEYVVRSGSGLDAFREKWDLWDQGLMYDLKDKRAVFPIFIDGVMIDAVGRALAGAEPKWLRYTG | -0.176
40 | HMEINEDEIYEKIMIEIEQDNKVKSTWAKALSQSDGNKDKAESLYISMRFEELKYHQSYQKEELNLKDNQQ | 0.0614
41 | HMEIPRYRLIGADGGRMVDLGEGQGAIPPVDVKRGMIDMPGLGKGYYTADGKSAVITNADGSKTRVL | -0.25
42 | HMEIRNLMPILSHFLNENDIKLSRESVNLVLDRASGNRENLNNELKKIHDYSFSNKIIDFETIKKLTNLG | -0.0896
43 | HMEISLAETLRSSLHMILGWYQNTGDKKLLELIRLHLQAYVNTGNSLNPEMEEIRAALETLGEGKEAFRP | -2.35
44 | HMEISNWLEEIGLSRYTETLSEFPLEDLVEFTDDDFKELGVLTPHRKKLLAAIATLNNDASSN | -0.245
45 | HMEISTEVPLRGGTISEEALEALNRLPGVTASNIDGKSISVDVADNAELRVSDINQVLAVHSPDTRV | -0.0403
46 | HMEITRDTVIQWLEAERRSQTWLSKQLGVSVQAVSNWLREKNPQTISASAQITIRALMEEDAAK | -1.11
47 | HMEIVQVIAQNIQDLLDKHKISVSELSGYLGISRQTLTNYLKTTSTIDSVQLVKIADFFNIPAEYLLKDH | -1.5
48 | HMEIVSTEEKIKRAAEQVFLLRGLEGARMQEIADVAGINKAMLHYYFRNKETLFDVILSEKL | -2.11
49 | HMEIYEEDRTKVVNDLMDQILNRQITMDAAATKFINIRNSLGTTITKEDEQNLEMLRGLIFDKT | 0.2
50 | HMEIYIDGNKYVGELRNGKPNGRGTITYTGDGSKYVGEWKNGKRYGRGKMAYTNGTTKEGVWKDDEFLYAT | 0.181
51 | HMEKAKVPSVIGMTEANAKRTIRDAGFKVGRVTRVESEAYDKGKVIEQQYEAGSELEKKKPISIVVSKGKK | -0.108
52 | HMEKALEVKYQKMVELLGDQSTFYVDEVKKIFPEMKKSSLYWNMSKLVEGGYLRRIRNGVYAFNE | -0.401

Row | Sequence | soluble fraction (log2)
53 | HMEKEKIKEALIGYFEAEPEEKFTVQELADKLKMNKAGQFNFVVQAVAQLEHDKVITLDDEGNFSLVRHE | 0.176
54 | HMEKERYDTGIGELNRVLGGGLVKGSLILISGDPGIGKSTLLLQTANNISKKYGKVLYVSGEESEEQIKIR | -0.879
55 | HMEKGWYKLGQDSYYVDDDGKIHKGWLELDGKKYYFDQEGKMVTGTVNIDGKDYTFNEKGELYVS | ≥ 1.04
56 | HMEKIELKTVIPENLKKKRLDFALSELFPEHSRSRIQSWIKEGSVMVNSKNYRQRDLVDAGDVVEINTEQK | 0.00949
57 | HMEKIIGQIQINQRGNGYVIVPNVKDDIFVKRENLNSARQGDRVAVQLLSRPNQKPEGLVQEVLERGQ | 0.637
58 | HMEKILSYKALMNDAGKRIDQFLANNEKDISRTRIKSLILEGSLKLDNNIINDPSYKIKENDVFTLFIPEA | -0.482
59 | HMEKIRIQKYLSERGVMSRRAADSALAEGRIAVNGVTARPGDKIDPSSDTLTIDGRIVTTGTAP | -0.0992
60 | HMEKKEWVIYITGAVKKPGVYRIPEGARVYQALEAAGGFTPEADRDAVNLAAMLQDGAHIKFPAVGEEV | -0.148
61 | HMEKLNYSISNEEQGQRIDKYLSLMIEGKSRSFIQGLIDDKKVMANGKVIKSNYKLKNNDEITVEMPDPI | -0.0366
62 | HMEKNILPDTSPEKQYEFATSFLKVGDYSTAERAFREFVINNSEHKLAGNAQYWYAETFRIRQ | 0.261
63 | HMEKSQIHLIHTRYVNPEQLVPILSMVIPAENIYVKSDSNLIIINGSSEMLREVESIVSKLDVPS | -0.255
64 | HMEKSSALRAKEAFMALYHDGKFKPGTKIPSESNMAELLGVSRETWRKALALLRGDGVLYSKHGSGTYLLE | 0.254
65 | HMEKTKLPNLVDFTYRQAEALLQTHGLKVGKVERVPDVGQTVIKAKYKGKVISWGTELNKGEKIDLVIGKG | -0.542
66 | HMELADLPSAQIREILAYVYRAPLEKRRDPSIHWLLIAAHKLTLPLLDRLDPADARALGERYGADYP | -0.00148
67 | HMELARLRPELDGNDIMRILGVPPGPVVGRAYTYLLELRINQGELGRERVTQLLLDWAAAEGISA | -2.76
68 | HMELDMTFGEKIQKLRKESGLSQEELSYQLGVSRQAISKWERDSGYPETEKIVRMSKIFDVTLDYLLNE | -0.582
69 | HMELEDTYTKNLDASLARLDEYQASKGLTDEQVDEVINSLIADAENIIMGVFTPELIDSKLKAMNYDQDV | 0.119
70 | HMELEFLTEKQKEALILAVNRGYYDVDSEVTLKRLADELGIARSTYGEHLKRAESEALKMVVSDLLRD | -0.556
71 | HMELEIPGELIEAVRRLRDERQRMRLAGELAARQIQMHPERYTEASIDPVQTWDELRARILALA | -0.485
72 | HMELLSGTVEKVLTSGVLVKLPGGAIGFIPNSEMGTPRGTNHGKMFPAGTPLQVMVVEVNQDRGRITLSR | -1.69
73 | HMELLTNPLTGREVEVLTLMALGQTNHEIARQLYLATGTVKAHTSSIYRKLDVANRTEAVARARQLGIL | -2.32
74 | HMELLTYREMDVLNLLDQRLTNKEIAHALGISTETVRQHTVNLFRKLNVDNRRQAIVVARSLGYIGTPT | -2.97
75 | HMELNESVLKALYEKFREMSGSKGFITEDEVIIQLEKENPDITPDQQAEIFKYLYDTPLQIY | -0.268
76 | HMELNFEGFYRFVRDELNVDLNAYKEKQLKRRIATVMKSSGALTLEDYSRLIANDEVIRNKFLDYITI | -3.37
